The values below come from publication doi:10.1101/2024.06.04.597308.

This experiment addresses 3β-OH-Δ5-6-cholesterol-5β-reductase (5βChR) from Limosilactobacillus fermentum NKN51 (Limosilactobacillus fermentum NKN51). Kind of experiment: SEC. In general terms: In gel filtration, larger molecules generally elute earlier.

“3β-OH-Δ5-6-cholesterol-5β-reductase (5βChR) from Limosilactobacillus fermentum NKN51 (enzyme)” registered a stoichiometry N of 2.

The stoichiometry N is the number of molecules, sites or subunits per partner or assembly.
